Data on 108 substances can be found in US20070224188A1.

Sequence of anti-CD20 antibody, IgG1 Fc region, wild type (a, z) (heavy, part): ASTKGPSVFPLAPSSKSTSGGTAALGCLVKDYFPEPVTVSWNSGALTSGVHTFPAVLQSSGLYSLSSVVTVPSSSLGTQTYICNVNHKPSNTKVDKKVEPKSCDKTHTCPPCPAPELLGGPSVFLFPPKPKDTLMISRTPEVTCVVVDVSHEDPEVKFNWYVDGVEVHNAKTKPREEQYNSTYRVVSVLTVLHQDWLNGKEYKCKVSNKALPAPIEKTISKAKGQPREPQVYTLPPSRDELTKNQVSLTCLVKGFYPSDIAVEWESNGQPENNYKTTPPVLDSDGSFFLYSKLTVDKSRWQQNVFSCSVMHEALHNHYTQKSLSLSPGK

This experiment concerns the target biotin-labeled soluble FcRn. As to the kind of experiment: FcRn ELISA pH 6.0. A general note: An ELISA detects its analyte on a solid surface through an enzyme-linked reagent.
Substance anti-CD20 IgG1 P247H (antibody) came in with a FcRn pH6.0 (% of wild type) of 35.
Same read-out and setting: as for anti-CD20 IgG1 D376M (antibody), the figure is 129.
Regarding anti-CD20 IgG1 272R286F (antibody), the FcRn6.0 (% of wild type) worked out at 338.
Regarding anti-CD20 IgG1 E382Q (antibody), the FcRn pH6.0 (% of wild type) was 162.
Still for that read-out and setting: as for anti-CD20 IgG1 G237N (antibody), the figure is 91; as for anti-CD20 IgG1 E430Y (antibody), 126; as for anti-CD20 IgG1 G236Y (antibody), 76.
Consider anti-CD20 IgG1 256P332E440Y (antibody), for which the FcRn6.0 (% of wild type) came to 117.
As to anti-CD20 IgG1 N286F (antibody), the FcRn pH6.0 (% of wild type) was determined as 307.
On to anti-CD20 IgG1 D249P (antibody), for which the FcRn pH6.0 (% of wild type) came out at 138.
Still for that read-out and setting: the figure for anti-CD20 IgG1 S254N (antibody) is 8; for anti-CD20 IgG1 E382M (antibody) it is 135.
The same measure, in the same setting: as for anti-CD20 IgG1 V279M (antibody), the figure is 122; as for anti-CD20 IgG1 Q311G (antibody), 58.
anti-CD20 IgG1 P247N (antibody): the FcRn pH6.0 (% of wild type) came to 41.
On the same count and under the same terms, the figure for anti-CD20 IgG1 L432S (antibody) is 70.
On the same count and under the same terms, the figure for anti-CD20 IgG1 S254P (antibody) is 3; for anti-CD20 IgG1 A378N (antibody) it is 180; for anti-CD20 IgG1 E382F (antibody) it is 222.
Still for that read-out and setting: as for anti-CD20 IgG1 E318T (antibody), the figure is 304.
With anti-CD20 IgG1 S267G (antibody), the FcRn pH6.0 (% of wild type) worked out at 86.
As for anti-CD20 IgG1 E382I (antibody), the FcRn pH6.0 (% of wild type) is 131.
In the case of anti-CD20 IgG1 Q311I (antibody), the FcRn pH6.0 (% of wild type) was 437.
Still for that read-out and setting: as for anti-CD20 IgG1 Q311N (antibody), the figure is 54; as for anti-CD20 IgG1 V379Q (antibody), 85; as for anti-CD20 IgG1 I332Q (antibody), 98.
Substance anti-CD20 IgG1 258D286F (antibody) came in with a FcRn6.0 (% of wild type) of 445.
Consider anti-CD20 IgG1 Y373V (antibody), for which the FcRn pH6.0 (% of wild type) was 69.
The substance anti-CD20 IgG1 D270G (antibody) had a FcRn pH6.0 (% of wild type) of 108.
anti-CD20 IgG1 E382W (antibody) came in with a FcRn pH6.0 (% of wild type) of 172.
In turn, anti-CD20 IgG1 V262L (antibody) came in with a FcRn pH6.0 (% of wild type) of 525.
As for anti-CD20 IgG1 R292G (antibody), the FcRn pH6.0 (% of wild type) turned out to be 60.
Still for that read-out and setting: the figure for anti-CD20 IgG1 G341Q (antibody) is 72.
For anti-CD20 IgG1 256P440Y (antibody), the FcRn6.0 (% of wild type) was 122.
anti-CD20 IgG1 E283P (antibody): the FcRn pH6.0 (% of wild type) was determined as 136.
On to anti-CD20 IgG1 E283Q (antibody), for which the FcRn pH6.0 (% of wild type) was 117.
On to anti-CD20 IgG1 S254H (antibody), for which the FcRn pH6.0 (% of wild type) is 0.
On the same count and under the same terms, the figure for anti-CD20 IgG1 D270A (antibody) is 87.
The substance anti-CD20 IgG1 272R311I (antibody) came in with a FcRn6.0 (% of wild type) of 396.
For anti-CD20 IgG1 T256P (antibody), the FcRn pH6.0 (% of wild type) was determined as 190.
On the same count and under the same terms, the figure for anti-CD20 IgG1 T256F (antibody) is 5; for anti-CD20 IgG1 Y373D (antibody) it is 74.
anti-CD20 IgG1 V279I (antibody) had a FcRn pH6.0 (% of wild type) of 83.
In turn, anti-CD20 IgG1 S440Q (antibody) showed a FcRn pH6.0 (% of wild type) of 81.
On the same count and under the same terms, the figure for anti-CD20 IgG1 N434I (antibody) is 6; for anti-CD20 IgG1 P247L (antibody) it is 57.
Take anti-CD20 IgG1 L235S (antibody): the FcRn pH6.0 (% of wild type) amounted to 85.
Same read-out and setting: as for anti-CD20 IgG1 I332M (antibody), the figure is 128.
“anti-CD20 antibody, IgG1 Fc region, wild type (a, z)” had a FcRn6.0 (% of wild type) of 100 and a FcRn pH6.0 (% of wild type) of 100.
In the case of anti-CD20 IgG1 P247D (antibody), the FcRn pH6.0 (% of wild type) was found to be 54.
Still for that read-out and setting: as for anti-CD20 IgG1 E380T (antibody), the figure is 172; as for anti-CD20 IgG1 G237K (antibody), 78; as for anti-CD20 IgG1 D376F (antibody), 116.
Still for that read-out and setting: as for anti-CD20 IgG1 E382A (antibody), the figure is 103; as for anti-CD20 IgG1 E318P (antibody), 75; as for anti-CD20 IgG1 H285N (antibody), 202.
The substance anti-CD20 IgG1 E430V (antibody) displayed a FcRn pH6.0 (% of wild type) of 281.
Substance anti-CD20 IgG1 E430I (antibody) yielded a FcRn pH6.0 (% of wild type) of 308.
On the same count and under the same terms, the figure for anti-CD20 IgG1 A339M (antibody) is 111.
In turn, anti-CD20 IgG1 I332N (antibody) had a FcRn pH6.0 (% of wild type) of 92.
The same measure, in the same setting: as for anti-CD20 IgG1 P257N (antibody), the figure is 867.
On the same count and under the same terms, as for anti-CD20 IgG1 Y373W (antibody), the figure is 75; as for anti-CD20 IgG1 S254A (antibody), 7; as for anti-CD20 IgG1 P238G (antibody), 66.
On to anti-CD20 IgG1 K326W (antibody), for which the FcRn pH6.0 (% of wild type) stood at 93.
The same measure, in the same setting: as for anti-CD20 IgG1 P343D (antibody), the figure is 102; as for anti-CD20 IgG1 T256Q (antibody), 64; as for anti-CD20 IgG1 T260S (antibody), 124.
The substance anti-CD20 IgG1 N315R (antibody) showed a FcRn pH6.0 (% of wild type) of 71.
The same measure, in the same setting: the figure for anti-CD20 IgG1 V279G (antibody) is 256; for anti-CD20 IgG1 E272R (antibody) it is 351.
Still for that read-out and setting: the figure for anti-CD20 IgG1 E283R (antibody) is 282.
On to anti-CD20 IgG1 Q311M (antibody), for which the FcRn pH6.0 (% of wild type) was found to be 387.
anti-CD20 IgG1 D312P (antibody): the FcRn pH6.0 (% of wild type) was found to be 546.
Same read-out and setting: as for anti-CD20 IgG1 K248P (antibody), the figure is 34; as for anti-CD20 IgG1 Y373T (antibody), 82; as for anti-CD20 IgG1 A339R (antibody), 82.
The same measure, in the same setting: as for anti-CD20 IgG1 E283S (antibody), the figure is 143; as for anti-CD20 IgG1 E430K (antibody), 131; as for anti-CD20 IgG1 A339L (antibody), 83.
Still for that read-out and setting: the figure for anti-CD20 IgG1 E283H (antibody) is 206; for anti-CD20 IgG1 S440A (antibody) it is 82; for anti-CD20 IgG1 D376T (antibody) it is 160.
The substance anti-CD20 IgG1 Q311F (antibody) registered a FcRn pH6.0 (% of wild type) of 64.
As to anti-CD20 IgG1 I332L (antibody), the FcRn pH6.0 (% of wild type) is 127.
With anti-CD20 IgG1 N434W (antibody), the FcRn pH6.0 (% of wild type) amounted to 1340.
Substance anti-CD20 IgG1 L314V (antibody) yielded a FcRn pH6.0 (% of wild type) of 21.
The same measure, in the same setting: the figure for anti-CD20 IgG1 G341F (antibody) is 52.
The substance anti-CD20 IgG1 330R332D (antibody) gave a FcRn6.0 (% of wild type) of 88.
Turning to anti-CD20 IgG1 R292F (antibody), the FcRn pH6.0 (% of wild type) was determined as 64.
Substance anti-CD20 IgG1 307E376V (antibody) came in with a FcRn6.0 (% of wild type) of 480.
As for anti-CD20 IgG1 S442K (antibody), the FcRn pH6.0 (% of wild type) was found to be 138.
In the case of anti-CD20 IgG1 Q311D (antibody), the FcRn pH6.0 (% of wild type) worked out at 38.
For the substance anti-CD20 IgG1 E283K (antibody), the FcRn pH6.0 (% of wild type) came to 246.
Still for that read-out and setting: the figure for anti-CD20 IgG1 R292I (antibody) is 56; for anti-CD20 IgG1 A339N (antibody) it is 146.
Same read-out and setting: the figure for anti-CD20 IgG1 N315K (antibody) is 88; for anti-CD20 IgG1 Q311R (antibody) it is 14; for anti-CD20 IgG1 S440G (antibody) it is 101.
On the same count and under the same terms, the figure for anti-CD20 IgG1 S440T (antibody) is 71; for anti-CD20 IgG1 E382H (antibody) it is 135; for anti-CD20 IgG1 T256D (antibody) it is 544.
Take anti-CD20 IgG1 P257M (antibody): the FcRn pH6.0 (% of wild type) amounted to 835.
On to “anti-CD20 IgG1 256P314Y332E440Y (antibody)”, for which the FcRn6.0 (% of wild type) amounted to 86.
The substance anti-CD20 IgG1 D249L (antibody) registered a FcRn pH6.0 (% of wild type) of 15.
anti-CD20 IgG1 T256K (antibody) displayed a FcRn pH6.0 (% of wild type) of 31.
On the same count and under the same terms, as for anti-CD20 IgG1 G341M (antibody), the figure is 79; as for anti-CD20 IgG1 P257S (antibody), 184.
